Source: US20260217843A1

Key:
[1] = molecular target: cynomolgus FcRn (cynomolgus) (UniProt Q8SPV9); experiment: SPR (Biacore 8K+), antibody captured by anti-human kappa, cynomolgus FcRn injected, pH 5.8; pH 5.8
human FcRn (human) = human FcRn (human) (UniProt P55899); experiment: SPR (Biacore 8K+), antibody captured by anti-human kappa, human FcRn injected, pH 5.8; pH 5.8
C1q = experiment: SPR (Biacore 8K+), antibody captured by anti-human IgG Fc, C1q injected at 25 nM, mean response
Chain of C1q (P02745 23-245, chain 1 of 3): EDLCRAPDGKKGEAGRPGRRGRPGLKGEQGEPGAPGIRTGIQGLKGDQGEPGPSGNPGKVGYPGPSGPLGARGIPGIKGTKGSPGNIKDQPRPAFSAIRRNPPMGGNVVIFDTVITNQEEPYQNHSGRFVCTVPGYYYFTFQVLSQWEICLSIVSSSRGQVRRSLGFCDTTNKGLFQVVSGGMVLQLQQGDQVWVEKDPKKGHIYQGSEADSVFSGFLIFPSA
Chain of C1q (P02746 28-253, chain 2 of 3, further chain): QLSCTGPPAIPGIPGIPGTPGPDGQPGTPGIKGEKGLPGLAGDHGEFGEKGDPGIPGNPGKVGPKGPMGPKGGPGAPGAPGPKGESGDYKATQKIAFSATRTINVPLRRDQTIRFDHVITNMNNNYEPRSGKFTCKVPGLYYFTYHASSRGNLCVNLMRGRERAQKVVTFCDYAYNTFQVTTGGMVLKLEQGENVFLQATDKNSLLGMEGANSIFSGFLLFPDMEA
Chain of C1q (P02747 29-245, chain 3 of 3, further chain): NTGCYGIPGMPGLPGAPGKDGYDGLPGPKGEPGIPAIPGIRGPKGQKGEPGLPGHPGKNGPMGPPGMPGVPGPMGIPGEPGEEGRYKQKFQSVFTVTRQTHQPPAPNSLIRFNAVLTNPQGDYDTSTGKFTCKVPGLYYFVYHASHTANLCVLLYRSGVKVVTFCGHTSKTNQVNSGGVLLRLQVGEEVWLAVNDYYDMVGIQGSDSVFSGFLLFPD

Chain of human FcRn (human) (P55899 24-297 limits assumed, form in doubt, chain 1 of 2): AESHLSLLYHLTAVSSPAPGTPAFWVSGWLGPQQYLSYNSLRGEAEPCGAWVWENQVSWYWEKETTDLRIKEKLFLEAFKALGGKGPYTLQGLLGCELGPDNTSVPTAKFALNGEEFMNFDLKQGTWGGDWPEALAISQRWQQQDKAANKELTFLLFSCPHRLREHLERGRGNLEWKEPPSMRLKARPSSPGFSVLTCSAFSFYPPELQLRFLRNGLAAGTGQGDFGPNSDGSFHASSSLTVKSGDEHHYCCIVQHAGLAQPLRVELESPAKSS
Chain of human FcRn (human) (chain, as listed by the source limits assumed, form in doubt, chain 2 of 2): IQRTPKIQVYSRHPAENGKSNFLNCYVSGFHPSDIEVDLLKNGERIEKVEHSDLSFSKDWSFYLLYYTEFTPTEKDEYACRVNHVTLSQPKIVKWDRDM

Row | Substance | Kd [1] [nM] | Kd (human FcRn (human)) [nM] | RU at 25 nM C1q (C1q) [RU]
1 | positive control based on the sequences of the anti-hOX40L antibody amlitelimab | 926 | 1110 | –
2 | Rituximab, an anti-CD20 antibody | – | – | 386
